Laboratory results as given in paper PMC6883096.

How the values were obtained:
[1] = target: DS153 (BaxA N29S) (Bacillus amyloliquefaciens)
[2] = target: DS241 (BaxA S31R) (Bacillus amyloliquefaciens)
[3] = target: recombinant Bacillus amyloliquefaciens xylanase A (reBaxA) (Bacillus amyloliquefaciens)
[4] = target: DS428 (BaxA I51V) (Bacillus amyloliquefaciens)
[5] = target: catalytic domain of Thermomonospora fusca TF xylanase A (TfxA_CD) (Thermomonospora fusca TF)

B1: recombinant rice xylanase inhibitor (rePRIXI) (natural protein)
chain: AGKTGQMTVFWGRNKNEGTLKETCDTGLYTTVVISFYSVFGHGRYWGDLSGHDLRVIGADIKHCQSKNIFVFLSIGGAGKDYSLPTSKSAADVADNIWNAHMDGRRPGVFRPFGDAAVDGIDFFIDQGAPDHYDDLARNLYAYNKMYRARTPVRLTATVRCAFPDPRMKKALDTKLFERIHVRFYDDATCSYNHAGLAGVMAQWNKWTARYPGSHVYLGLAAANVPGKNDNVFIKQLYYDLLPNVQKAKNYGGIMLWDRFYDKQTGYGKTVKYWA
Question: Which inhibitory rate of xylanase activity after incubation of the xylanase with rePRIXI at 50°C for 40 min (residual activity on beechwood xylan) [1] does the source give for B1 here?
Answer: 14.8%

Question: And the inhibitory rate of xylanase activity after incubation of the xylanase with rePRIXI at 50°C for 40 min (residual activity on beechwood xylan) [2]?
Answer: 20.5%

Question: What about the inhibitory rate of xylanase activity after incubation of the xylanase with rePRIXI at 50°C for 40 min (residual activity on beechwood xylan) [3] of the same binder?
Answer: 30.3%

Question: And the inhibitory rate of xylanase activity after incubation of the xylanase with rePRIXI at 50°C for 40 min (residual activity on beechwood xylan) [4]?
Answer: 11.3%

Question: What about the inhibitory rate of xylanase activity after incubation of the xylanase with rePRIXI at 50°C for 40 min (residual activity on beechwood xylan) [5] of the same binder?
Answer: 11.2%
